Our source for the reverse-splicing fitness values is the RNAGym collection of RNA variant scans (doi:10.1093/molbev/msab373).

The chains are these.
B1: Azoarcus group I ribozyme (parent)
chain: GUGCCUUGCGCCGGGAAACCACGCAAGGGAUGGUGUCAAAUUCGGCGAAACCUAAGCGCCCGCCCGGGCGUAUGGCAACGCCGAGCCAAGCUUCGGCGCCUGCGCCGAUGAAGGUGUAGAGACUAGACGGCACCCACCUAAGGCAAACGCUAUGGUGAAGGCAUAGUCCAGGGAGUGGCGAAAGUCACACAAACCGG

Variants of B1 are the subject of the data set. Nature of the data set: reverse-splicing fitness (ratio to wild type); higher = more active; in vitro selection; Mg2+ level not given. The essentials: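 An in vitro group I ribozyme library with randomized positions was T7-transcribed and gel-purified. In triplicate, 10 pmol RNA in EPPS pH 7.5 was reacted with 50 pmoles of a 30-nt RNA substrate for 1 h at 37 °C across several added MgCl2 levels (1–48 mM), then stopped with EDTA. Products were reverse transcribed from a substrate-complementary primer, PCR-amplified and sequenced (HiSeq 4000). Fitness is a variant's read proportion after selection over that before, normalised to wild type.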
With A111G A120C A145U C169A U176G, the reverse-splicing fitness stood at 0.00333. Take A111G A120C A145U C169A U176C: the reverse-splicing fitness turned out to be 0.0103. A111G A120C A145U C169A U176A: the reverse-splicing fitness was 0.00811.

Take A111G A120G A145G C150U C169G U176C: the reverse-splicing fitness was 0.078. Turning to A111G A120G A145G C150U C169G U176A, the reverse-splicing fitness was 0.0549. As for A111G A120G A145G C150U C169G U176G, the figure is 0.00563; as for A111G A120G A145G C150G C169A U176G, 0.00709. Turning to A111G A120G A145G C150G C169A U176C, the reverse-splicing fitness was 0.0143.

Take A111G A120G A145G C150G C169A U176A: the reverse-splicing fitness came to 0.0122. For the variant A111G A120G A145C C169U U176G, the reverse-splicing fitness came to 0.00876. As for A111G A120G A145C C169U U176C, the reverse-splicing fitness turned out to be 0.0829.

For the variant A111G A120G A145C C169U U176A, the reverse-splicing fitness was 0.0733.

As to A111G A120C A145G C150U U176C, the reverse-splicing fitness was found to be 0.316.

For A111G A120C A145G C150U U176A, the reverse-splicing fitness came out at 0.287. As to A111G A120C A145G C150U U176G, the reverse-splicing fitness stood at 0.0682. In the case of A111G A120G A145C C150A C169A U176C, the reverse-splicing fitness was 0.00695.

On to A111G A120G A145C C150A C169A U176A, for which the reverse-splicing fitness was determined as 0.0135. A111G A120G A145C C150A C169A U176G: the reverse-splicing fitness was found to be 0.00399. Take A111G A120C A145G C150U C169G: the reverse-splicing fitness came out at 0.0142.

For the variant A111G A120C A145G C150U C169U, the reverse-splicing fitness was found to be 0.224. As to A111G A120C A145G C150U C169A, the reverse-splicing fitness is 0.0158. As for A111G A120G A145G C150A C169U U176A, the reverse-splicing fitness came to 0.0309. With A111G A120G A145G C150A C169U U176C, the reverse-splicing fitness was 0.0305.

With A111G A120G A145G C150A C169U U176G, the reverse-splicing fitness was 0.00605. For the variant A111G A120G A145C C150A U176A, the reverse-splicing fitness came to 0.0131. Consider A111G A120G A145C C150A U176C, for which the reverse-splicing fitness was 0.0131. As for A111G A120G A145C C150A U176G, the figure is 0.00495; as for A111G A120G A145C C150G U176G, 0.00289. Consider A111G A120G A145C C150G U176A, for which the reverse-splicing fitness was 0.014. On to A111G A120G A145C C150G U176C, for which the reverse-splicing fitness stood at 0.0228. A111G A120C A145U C150A U176C: the reverse-splicing fitness worked out at 0.0741. As for A111G A120C A145U C150A U176G, the figure is 0.024. As for A111G A120C A145U C150A U176A, the reverse-splicing fitness stood at 0.0685.

Turning to A111G A120G A145C C150A C169G, the reverse-splicing fitness came to 0.0196. As for A111G A120G A145C C150A C169A, the figure is 0.0124. A111G A120G A145C C150A C169U: the reverse-splicing fitness amounted to 0.0192. With A111G A120C C150G C169U U176A, the reverse-splicing fitness was determined as 0.00767. Consider A111G A120C C150G C169U U176C, for which the reverse-splicing fitness is 0.0152. With A111G A120C C150G C169U U176G, the reverse-splicing fitness is 0.0044.

In the case of A111G A120C C150U, the reverse-splicing fitness was found to be 0.528. In the case of A111G A120C C150A, the reverse-splicing fitness was 0.124.

For A111G A120C C150G, the reverse-splicing fitness came to 0.0783. As for A111G A120C A145G C169G, the reverse-splicing fitness turned out to be 0.0121. Regarding A111G A120C A145G C169A, the reverse-splicing fitness stood at 0.0165. With A111G A120C A145G C169U, the reverse-splicing fitness was 0.254. As for A111G A120C A145U U176G, the figure is 0.172; as for A111G A120C A145U U176A, 0.482; as for A111G A120C A145U U176C, 0.45. Take A111G A120C A145U C150G C169A: the reverse-splicing fitness turned out to be 0.00821. As for A111G A120C A145U C150G C169U, the reverse-splicing fitness stood at 0.0352. For the variant A111G A120C A145U C150G C169G, the reverse-splicing fitness was determined as 0.00597. Regarding A111G A120C A145G C150G C169G, the reverse-splicing fitness was 0.0082.

As for A111G A120C A145G C150G C169A, the reverse-splicing fitness was determined as 0.00936. For A111G A120C A145G C150G C169U the value was 0.0255; for A111G A120G A145G C150A, 0.0452; for A111G A120G A145G C150G, 0.0366. For A111G A120G A145G C150U the value was 0.244; for A111G A120G A145U C150A C169A U176A, 0.0157.

With A111G A120G A145U C150A C169A U176G, the reverse-splicing fitness amounted to 0.00504.

Consider A111G A120G A145U C150A C169A U176C, for which the reverse-splicing fitness worked out at 0.015.

Turning to A111G A120C A145G C169A U176G, the reverse-splicing fitness was determined as 0.00366. For A111G A120C A145G C169A U176C, the reverse-splicing fitness was 0.0197. With A111G A120C A145G C169A U176A, the reverse-splicing fitness stood at 0.0173.

Regarding A111G A120C A145G C150G C169A U176G, the reverse-splicing fitness turned out to be 0.00623.

A111G A120C A145G C150G C169A U176A: the reverse-splicing fitness was 0.00955.

For the variant A111G A120C A145G C150G C169A U176C, the reverse-splicing fitness is 0.0102. For A111G A120G A145C C169A, the reverse-splicing fitness worked out at 0.158.

Turning to A111G A120G A145C C169G, the reverse-splicing fitness was determined as 0.3. With A111G A120G A145C C169U, the reverse-splicing fitness was 0.219. Regarding A111G A120C C150G C169G U176A, the reverse-splicing fitness was found to be 0.00631.

As for A111G A120C C150G C169G U176G, the reverse-splicing fitness turned out to be 0.00385. For A111G A120C C150G C169G U176C the value was 0.00358; for A111G A120G, 0.3; for A111G A120C A145U C150U C169U U176C, 0.051. On to A111G A120C A145U C150U C169U U176G, for which the reverse-splicing fitness turned out to be 0.00606. For A111G A120C A145U C150U C169U U176A, the reverse-splicing fitness was 0.0423. As for A111G A120C A145U C150G C169G U176A, the figure is 0.00655; as for A111G A120C A145U C150G C169G U176C, 0.00451; as for A111G A120C A145U C150G C169G U176G, 0.00416.

In the case of A111G A120C A145G C169U U176C, the reverse-splicing fitness was 0.0832. Consider A111G A120C A145G C169U U176G, for which the reverse-splicing fitness was 0.00613. As for A111G A120C A145G C169U U176A, the figure is 0.064. A111G A120C A145G C169G U176A: the reverse-splicing fitness is 0.019.
